Laboratory results taken from patent US7423017B2, “Method for treating cartilage disorders” (Genentech, Inc., priority 1997, dated 2008).
“Also recorded” adds a separate entry of the source. Marks after values point to notes of the source that are not given here. One block for each substance: values may come before it.

Experiments:
[1] = molecular target: T1, IGFBP-3 (Homo sapiens, UniProt P17936); experiment: BIACORE kinetics: IGFBP-3 binding to immobilized IGF-1 variants; details: for IGFBP-3 ka / IGFBP-3 kd: Table XV; for Binding to IGFBP-3 ka: 25 C; for Binding to IGFBP-3 KD: kd/ka
T1 construct: made in house
T1 sequence (P17936 28-291): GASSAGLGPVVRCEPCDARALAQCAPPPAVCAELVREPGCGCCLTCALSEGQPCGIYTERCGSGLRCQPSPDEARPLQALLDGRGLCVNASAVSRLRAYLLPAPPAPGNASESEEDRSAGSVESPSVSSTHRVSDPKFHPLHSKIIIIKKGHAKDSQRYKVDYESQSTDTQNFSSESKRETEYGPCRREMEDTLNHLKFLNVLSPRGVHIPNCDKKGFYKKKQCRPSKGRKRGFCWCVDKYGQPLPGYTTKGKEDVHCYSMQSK
Experimental: (§1) The binding affinities of the IGF variants for IGFBP-1 and IGFBP-3 were determined using a BIACORE™-2000 real time kinetic interaction analysis system (Biacore, Inc., Piscataway, N.J.) to measure association (ka) and dissociation (kd) rates. Carboxymethylated dextran biosensor chips (CM5, BIAcore Inc.) were activated with EDC (N-ethyl-N′-(3-dimethylaminopropyl)-carbodiimide hydrochloride) and NHS(N-hydroxysuccinimide) according to the supplier's instructions. For immobilization, IGF mutants in 20 mM sodium acetate, pH 4.8, were injected onto the biosensor chip at a concentration of 50 μg/ml to yield approximately 450-600 RU's (resonance-responce units) of covalently-coupled protein. Unreacted groups were blocked with an injection of 1 M ethanolamine. Kinetic measurements were carried out by injecting two-fold serial dilutions (starting at 1 μM) of either IGFBP-1 or IGFBP-3 in running buffer (PBS, 0.05% TWEEN 20™, 0.1% ovalbumin, 0.1% sodium azide) at 25 °C using a flow rate of 20 μl/min. Association rates (ka) and dissociation rates (kd) were calculated separately using a 1:1 Langmuir™ association model in the BIACORE™ evaluation software v. 3.0. The equilibrium dissociation constant (KD) was calculated as kd/ka.

[2] = test system: human articular cartilage explants; experiment: human articular cartilage explants from diseased joints: matrix synthesis (35S-sulfate uptake); assay type: cell-based; details: 40 ng/ml
Experimental: The metacarpophalangeal joint of a six-month old pig was cultured as described above for bovine articular cartilage in Example 8. This explant was cultured in media alone or in media with D12K, D12R, or wild-type IGF-1 (at 10 nM) alone or in the presence of IL-1α at 1 ng/ml, as described above. Human explants were from patients undergoing joint replacement surgery. Articular cartilage was harvested, aliquoted (40-45 mg/tube) and cultured as above. […] Fresh media was added on days 0, 1, 2, and 3. Matrix breakdown was determined by measuring the amount of proteoglycans in the media using the DMMB assay as set forth above. Matrix (proteoglycan) synthesis was determined by measuring ^35S-sulfate uptake as set forth above.
Human articular cartilage explants were cultured in media or treated with IGF-1 by itself or in combination with either BP3-40 or BP3-15 at 0.1 mg/ml as set forth above. Matrix breakdown was determined by measuring the release of proteoglycans into media as described above. Matrix synthesis was determined by counting the amount of ^35S-sulfate incorporated into the cartilage tissue as described above.
The same Material and Methods (for human tissue) were used as described above, using articular cartilage explants from human joints removed from patients undergoing joint replacement. These explants were cultured with IGF-1 alone at 40 ng/ml, or IGF-1 with BP1-17, BP3-15, or BP1-16 (0.1 mg/ml), or IGF-1 with buffer (HEPES).

[3] = blood clearance, pharmacokinetics and tissue distribution of radiolabeled IGF-1 variants, IV in rats; assay type: in vivo, rat
[4] = test system: IGFBP-1; experiment: BIACORE kinetics: IGFBP-1 binding to immobilized IGF-1 variants; set-up: species or system human; details: from relative KD values
Experimental: as §1
(§2) For measurements of IGFBP-1 binding to IGF-1, kinetics experiments were conducted using a single-cysteine IGF-1 variant, Y31C, that was immobilized onto the sensor chip surface via a disulfide linkage (BIACORE™ System Manual Supplement, 5a-1, Pharmacia (1991)).

[5] = molecular target: T2, IGFBP-1 (Homo sapiens, UniProt P08833); experiment: competitive phage ELISA of IGF-1 mutants, IGFBP-1; assay type: binding; set-up: made in house; host or cells: CHO cells; details: phage display, soluble IGFBP-1 competitor
T2 sequence (P08833 26-259): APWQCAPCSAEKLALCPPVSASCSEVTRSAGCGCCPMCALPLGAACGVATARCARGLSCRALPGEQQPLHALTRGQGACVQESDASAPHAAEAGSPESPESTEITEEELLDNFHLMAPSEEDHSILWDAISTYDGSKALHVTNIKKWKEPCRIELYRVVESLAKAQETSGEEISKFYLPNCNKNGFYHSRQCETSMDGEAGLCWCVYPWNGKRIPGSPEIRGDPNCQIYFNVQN
Experimental: (§3) An alanine-scanning mutagenesis approach (Cunningham and Wells, Science, 244: 1081-1085 (1989); U.S. Pat. No. 5,834,250) was used to remove that portion of each side chain of IGF-1 beyond the beta carbon. The contribution of these atoms to the free energy of binding of the IGF-1 analog to IGFBP-1 or to IGFBP-3 was then assessed by competitive phage ELISA. In this assay, IGFBP-1 or IGFBP-3 is used to inhibit IGF-phage mutants from binding to an IGFBP-1- or IGFBP-3-coated immunosorbant plate.
(§4) Immunosorbent plates (Nunc, MAXISORP™, 96 wells) were coated with 100 μl/well of 1 μg/ml IGFBP-1 or IGFBP-3 in PBS buffer pH 7.2 at 4° C. overnight. The plates were then blocked with 0.5% TWEEN 20™/PBS (also used as binding buffer) for 2 hours at room temperature (proteinaceous blocking agents like bovine serum albumin were avoided to prevent potential IGF or IGFBP contamination). E. coli cells (XL1-Blue, Stratagene) freshly transformed with phagemid vector were grown overnight in 5 mL 2YT medium (Sambrook et al., supra) in the presence of M13-VCS helper phage (Stratagene). Phage particles were harvested and resuspended in PBS buffer as described in Lowman, H. B., “Phage Display of Peptide Libraries on Protein Scaffolds,” in Cabilly, S. (ed.), Combinatorial Peptide Library Protocols (Humana Press Inc.: Totowa, N.J., 1998), pp. 249-264. Then phage concentrations were normalized to yield a maximal ELISA signal of 0.2-0.4 for each mutant (Lowman, in Cabilly, S. (ed.), supra). Threefold serial dilutions of soluble competitor were prepared on non-absorbent microtiter plates (Nunc, F, 96 wells) with binding buffer (0.5% TWEEN 20™/PBS) containing phage at the previously determined concentrations. The dilution range of competitor protein extended over six orders of magnitude, starting at 5 μM for IGFBP-1 and 500 nM for IGFBP-3. After blocking, the plates containing immobilized target were washed with 0.05% TWEEN™/PBS buffer and subsequently incubated with 80 μl/well of the premixed phage-competitor solutions for 1 hour at room temperature. After washing, bound phage was detected with 80 μl/well of a solution containing a primary rabbit anti-phage polyclonal antibody and a secondary goat anti-rabbit monoclonal antibody-horseradish peroxidase conjugate in 0.5% TWEEN 20™/PBS. o-Phenylenediamine (Sigma) and tetramethylbenzidine (Kirkegaard and Perry) were used as chromogenic substrates, resulting in product detection at 492 and 450 nm, respectively. IC50 values were determined by fitting the binding data to a generic saturation curve (Lowman, in Cabilly, S. (ed.), supra). At least two individual clones of each IGF-1 mutant were assayed. Numbers in Table XIII represent mean±standard deviation of individually assessed IC50 values.

[6] = molecular target: T1, IGFBP-3; experiment: competitive phage ELISA of IGF-1 mutants, IGFBP-3; assay type: binding; details: phage display, soluble IGFBP-3 competitor
Experimental: as §3, §4

[7] = molecular target: T2, IGFBP-1; experiment: BIACORE kinetics: IGFBP-1 binding to immobilized IGF-1 variants; set-up: made in house; host or cells: CHO cells; details: for Binding to IGFBP-1 ka: 25 C; for Binding to IGFBP-1 KD: kd/ka
Experimental: as §1, §2

[8] = test system: IGFBP-1; experiment: competitive phage ELISA of IGF-1 mutants, IGFBP-1; assay type: binding, human; details: relative IC50 IGFBP-1/relative IC50 IGFBP-3
Experimental: as §3, §4

IGFBP-3 ka [1]: 0.4 ± 0.1 ×10^5 M^−1
IGFBP-3 kd [1]: 38.6 ± 2.7 ×10^−4 s^−1
Substance: F16A/F49A: double mutant of IGF-1, F16A and F49A
matrix synthesis in diseased human articular cartilage [2]: stimulated matrix synthesis in diseased human articular cartilage

Specificity Relative BP-1 / Relative BP-3 [4]: 16.7
Binding to IGFBP-3 ka [1]: 2.7 ± 0.7 ×10^5 M^−1s^−1
IGFBP-3 ka [1]: 2.7 ± 0.7 ×10^5 M^−1
IGFBP-3 kd [1]: 17.1 ± 0.9 ×10^−4 s^−1
IC50 [5]: > 1000 nM
IC50 [6]: 2.72 ± 1.11 nM
Binding to IGFBP-1 ka [7]: 1.26 ± 0.8 ×10^4 M^−1s^−1
Substance: F49A: IGF-1 variant wherein phenylalanine at position 49 is changed to alanine
rate of clearance from blood ([3]; radiolabeled, IV, rats): cleared at a faster rate compared to wild-type human IGF-1
kidney tissue-to-blood ratio ([3]; radiolabeled, IV, rats, 5, 15, 30 minutes): accumulate at statistically significant higher levels in the kidney compared to wild-type IGF-1; also recorded: accumulate at statistically significant higher ratios in the kidney compared to wild-type IGF-1
clearance ([3]; single IV dose in rats): 427 ± 125 mL/h/kg
matrix synthesis in diseased human articular cartilage [2]: stimulated matrix synthesis in diseased human articular cartilage

Specificity Relative BP-1 / Relative BP-3 [4]: 0.7
Binding to IGFBP-3 ka [1]: 2.9 ± 0.8 ×10^5 M^−1s^−1
Binding to IGFBP-1 ka [7]: 3.2 ± 0.2 ×10^4 M^−1s^−1
Substance: G1S-A70V: IGF-1 double mutant, first and last amino acids changed; template for alanine scan
relative specificity [8]: 1.0

Specificity Relative BP-1 / Relative BP-3 [4]: 0.7
Binding to IGFBP-3 ka [1]: 2.7 ± 0.2 ×10^5 M^−1s^−1
Binding to IGFBP-3 KD [1]: wild-type kinetics
Binding to IGFBP-1 ka [7]: 3.1 ± 0.2 ×10^4 M^−1s^−1
Binding to IGFBP-1 KD [7]: wild-type kinetics
Substance: P39A: IGF-1 single alanine mutant

Specificity Relative BP-1 / Relative BP-3 [4]: 1.4
Binding to IGFBP-3 ka [1]: 4.0 ± 0.1 ×10^5 M^−1s^−1
Binding to IGFBP-3 KD [1]: wild-type kinetics
Binding to IGFBP-1 ka [7]: 4.0 ± 0.2 ×10^4 M^−1s^−1
Binding to IGFBP-1 KD [7]: wild-type kinetics
Substance: R36A: IGF-1 single alanine mutant

Specificity Relative BP-1 / Relative BP-3 [4]: 3.3
Binding to IGFBP-3 ka [1]: 1.8 ± 0.6 ×10^5 M^−1s^−1
IC50 [5]: 19.4 ± 6.4 nM
IC50 [6]: 0.8 ± 0.02 nM
Binding to IGFBP-1 ka [7]: 1.9 ± 0.2 ×10^4 M^−1s^−1
Substance: T4A: IGF-1 single alanine mutant
relative specificity [8]: 2.2

Specificity Relative BP-1 / Relative BP-3 [4]: 1.1
Binding to IGFBP-3 ka [1]: 3.1 ± 0.5 ×10^5 M^−1s^−1
Binding to IGFBP-1 ka [7]: 1.9 ± 0.1 ×10^4 M^−1s^−1
Substance: V11A: IGF-1 single alanine mutant

Substance: ^125I-F49A: radiolabeled F49A IGF-1
Half-life t1/2^α ([3]; single IV dose in rats): 3.84 ± 3.12 min
Half-life t1/2^β ([3]; single IV dose in rats): 0.971 ± 0.336^+ hr
Half-life t1/2^γ ([3]; single IV dose in rats): 8.97 ± 4.50 h
clearance ([3]; single IV dose in rats): 427 ± 125*^+ ml/hr/kg
steady-state distribution volume ([3]; single IV dose in rats): 3201 ± 488*^+ ml/kg
